The values below come from patent US20090291083A1, “BARB4 TARGET, ANTIBODY DESIGNATED BARB4, BARB4 RELATED ANTIBODIES, AND METHODS OF MAKING AND USING SAME” (PATRYS LIMITED, priority 2008, published 2009).

In test [1] the test system is human pancreas carcinoma cell-line BXPC-3. Kind of test: Immunofluorescence, endocytosis of conjugated BARB4. The format is cell-based. The settings on record: 40 μg/ml conjugated antibody, 37° C., 30 minutes after binding. On the procedure:
Endocytosis was determined for BARB4 on human pancreas carcinoma cell-line BXPC-3. BARB4 antibody (purified) was conjugated with Fluorescent orange 548 reactive (Fluka, Buchs, Switzerland). Conjugated BARB4 antibody at a final concentration of 40 μg/ml was directly given to 1×10^6 cells and incubated for indicated times at 37° C. Cells were harvested, rinsed and resuspended in phosphate buffer saline pH 7,4 (PBS). 100 μl of each cell suspension was fixed on slides. Finally the slides were mounted with Fluorescent Mounting Medium (DakoCytomation, Carpinteria, USA) and analyzed by confocal microscopy. The data is illustrated in FIG. 4.

The test system of a further test is HEK 293. Kind of test: FACS analysis of cell surface binding, BARB4 and commercial TAF 15 antibody. The note with it: BARB4 100 ug/ml, TAF 15 antibody 25 μg/ml. The protocol: (§1) To further validate BARB4 target protein TAF 15, BARB4 and a commercial TAF 15 antibody (anti-human TAFII p68, Santa Cruz Biotechnology, sc-81121) were analyzed for binding to BxPC-3, HEK 293, A549 and HeLa cell lines. In brief, cells were trypsinized with cell dissociation solution (Sigma C5789), resuspended in complete medium (RPMI 1640, PAA, E15-039, 10% Fetal bovine serum, PAA, A15-151 and 1% Glutamine, PAA, M11-004) and set on 2×10^5/ml. After 30 minutes on ice, cells were dispersed at 1 ml per FACS-tube and washed once with ice-cold PBS by centrifugation with 500 g and 4° C. Staining was done with BARB4 (100 ug/ml) or the commercial TAF 15 (25 μg/ml) IgG antibodies, control IgGs (IgG lambda, or mouse IgG), or without antibody in 200 μl PBS. Cells were incubated with 25 μg/ml antibody in 100 μl for 30 minutes on ice, then washed with ice cold PBS and secondary antibody (anti mouse IgG-FITC, dianova 115-095-008) was applied at a dilution of 1:50 in 200 μl per tube. After another 30 minutes of incubation in the dark, cells were washed twice with PBS and analyzed by FACS. […] BARB4 target protein TAF 15 validation was then analyzed by immunoprecipitation of MKNcell extracts with BARB4 and subsequent Western blotting with either BARB4 or anti-TAF 15 antibodies (Biomol, A300-308A; or Aviva, ARP30111_T100).
A general note: Flow cytometry measures light scatter and fluorescence of single cells or particles in a stream.

The subject of another test is HeLa. The description is as above. The settings on record: BARB4 100 ug/ml, TAF 15 antibody 25 μg/ml. The protocol: as §1
Test [2] has as its system human pancreas carcinoma cells (BXPC-3). Kind of test: Glycosidase assay on cytospins, immunohistochemical staining. The format is binding. The note with it: BXPC-3 cytospins, biotinylated BARB4 100 μg/ml. The protocol:
To determine whether O- or N-linked sugar residues are potentially involved in BARB4 binding to tumor cells, cytospin preparations of BXPC-3 cancer cells were incubated with N- or O-glycosidase. In brief, 4×10^5 human pancreas carcinoma cells (BXPC-3) were resuspended in 1 ml Dulbecco's phosphate buffered saline pH 7.2 (Sigma, Taufkirchen, Germany) and incubated with 10 U/ml N-glycosidase or 40 mU/ml O-glycosidase (both Roche Applied Science, Mannheim, Germany) for 2 hours at 37° C. Untreated cells in Dulbecco's phosphate buffered saline served as control. Cytospins were prepared and immunohistochemical staining with biotinylated BARB4 antibody (100 μg/ml) was performed.
After treatment of the cells, binding of BARB4 was evaluated by immunohistochemical staining (FIG. 5). […] BARB4 could therefore bind to an eptiope that includes or consists of a carbohydrate moiety that is removed or modified by O-glycosidase treatment.

B1: BARB4: human IgG antibody produced by hybridoma DSMZ Deposit No. DSM ACC2876; heavy chain SEQ ID NOs:1, 3, 5, 7, light chain SEQ ID NO:9 (antibody, V domains shown)
VH: QVQLVESGGGVVQPGRSLRLSCAASGFRFTTHGMHWVRQAPGKGLEWVAVISYNGRNKYYADYVNGRFTISRDDSRDTVFLQMNSLRPEDTAMYYCAKVRGDGYGDYGYFDYWGHGTLVSVSS
VL: QSALTQPRSVSGSPGQSVTISCTGTYNYVSWYQQHPGKAPKLMIFDVSRRSSGVPDRFSGSKSGNTASLTISGLQAEDEADYYCCSYGGTYLYVFGTGTTVTVLGQ
Regarding B1, the “endocytosis of antibody by cells (immunofluorescence)” value in test [1] is “endocytosis”. The “FACS binding to the cell surface” value in the test with HEK 293 and in the test on HeLa was “binding” each time. In addition, the “surface binding on cells treated with N-glycosidase” value in test [2] (10 U/ml N-glycosidase 2 hours 37° C.) is listed as “clear reduction of surface binding”. In addition, the “binding on cells treated with O-glycosidase” value in test [2] (40 mU/ml O-glycosidase 2 hours 37° C.) was “no effect”.
